The target in test [1] is T1, cynomolgus CD16 (cynomolgus monkey, UniProt Q8SPW2 17-208).
T1 construct: also called cyno CD16; FcγRIII (cynomolgus)
In words: SPR, kinetics fit. In general terms: SPR reads the build-up and loss of mass on a sensor chip optically.

Test [2] concerns the target T2, human CD16a V158 (human, UniProt P08637 17-208).
T2 construct: Recombinant receptor in SPR; in the cytotoxicity assays expressed on KHYG-1-CD16aV cells; also called hCD16aV; hCD16a V158
In words: SPR, qualitative (Table 40 not given).

In test [3] the target is T3, hBAFF-R-hFc-His fusion protein (human, UniProt Q96RJ3 1-78, biotinylated where used as yeast display probe).
T3 construct: also called hBAFFR-Fc; biotinylated hBAFF-R-hFc-His
As to the kind of experiment: yeast display flow cytometry after challenge: 100 pM hBAFFR-Fc biotin for 1hr at RT, then 1 mM nonbiotinylated hBAFFR-Fc (as printed on the sheet).

T2 sequence (P08637 17-208 F176V limits assumed): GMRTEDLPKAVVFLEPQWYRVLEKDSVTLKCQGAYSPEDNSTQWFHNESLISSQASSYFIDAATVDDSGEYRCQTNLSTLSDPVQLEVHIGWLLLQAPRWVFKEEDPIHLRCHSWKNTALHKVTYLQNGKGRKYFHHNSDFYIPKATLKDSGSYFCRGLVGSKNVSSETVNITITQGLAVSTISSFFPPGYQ
T1 sequence (Q8SPW2 17-208 limits assumed): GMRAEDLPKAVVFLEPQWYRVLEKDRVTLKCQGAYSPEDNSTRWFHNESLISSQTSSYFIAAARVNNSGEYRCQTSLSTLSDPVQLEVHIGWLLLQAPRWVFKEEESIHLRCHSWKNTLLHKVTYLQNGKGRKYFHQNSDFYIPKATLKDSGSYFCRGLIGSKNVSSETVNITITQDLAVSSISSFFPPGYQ

B1: AB1424/AB1612 F3′ TriNKET (bispecific antibody, human IgG1, kappa)
chain: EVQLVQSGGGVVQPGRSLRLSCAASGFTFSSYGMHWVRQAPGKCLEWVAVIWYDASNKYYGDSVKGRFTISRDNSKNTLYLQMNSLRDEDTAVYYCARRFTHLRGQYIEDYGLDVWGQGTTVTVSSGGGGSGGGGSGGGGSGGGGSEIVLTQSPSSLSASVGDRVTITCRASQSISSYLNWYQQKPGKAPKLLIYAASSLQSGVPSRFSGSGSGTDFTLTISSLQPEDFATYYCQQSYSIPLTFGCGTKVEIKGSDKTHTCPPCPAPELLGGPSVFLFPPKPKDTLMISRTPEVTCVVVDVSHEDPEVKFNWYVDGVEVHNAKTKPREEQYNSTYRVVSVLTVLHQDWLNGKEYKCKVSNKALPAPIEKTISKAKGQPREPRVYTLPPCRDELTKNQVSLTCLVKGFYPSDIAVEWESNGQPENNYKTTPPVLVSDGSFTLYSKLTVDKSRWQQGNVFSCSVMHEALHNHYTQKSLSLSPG
heavy: EVQLVESGGGLVKPGGSLRLSCAASGFTFSSYSMNWVRQAPGKGLEWVSSISSSSSYIYYADSVKGRFTISRDNAKNSLYLQMNSLRAEDTAVYYCARGAPIGAAAGWFDPWGQGTLVTVSSASTKGPSVFPLAPSSKSTSGGTAALGCLVKDYFPEPVTVSWNSGALTSGVHTFPAVLQSSGLYSLSSVVTVPSSSLGTQTYICNVNHKPSNTKVDKKVEPKSCDKTHTCPPCPAPELLGGPSVFLFPPKPKDTLMISRTPEVTCVVVDVSHEDPEVKFNWYVDGVEVHNAKTKPREEQYNSTYRVVSVLTVLHQDWLNGKEYKCKVSNKALPAPIEKTISKAKGQPREPQVCTLPPSRDELTENQVSLTCLVKGFYPSDIAVEWESNGQPENNYKTTPPVLDSDGSFFLYSWLTVDKSRWQQGNVFSCSVMHEALHNHYTQKSLSLSPG
light: DIQMTQSPSSVSASVGDRVTITCRASQGISSWLAWYQQKPGKAPKLLIYAASSLQSGVPSRFSGSGSGTDFTLTISSLQPEDFATYYCQQGVSFPRTFGGGTKVEIKRTVAAPSVFIFPPSDEQLKSGTASVVCLLNNFYPREAKVQWKVDNALQSGNSQESVTEQDSKDSTYSLSSTLTLSKADYEKHKVYACEVTHQGLSSPVTKSFNRGEC
notes: Chain S anti-BAFF-R scFv-CH2-CH3, Chain H and Chain L anti-NKG2D A49MI Fab; also called AB1612-002
As for B1, in test [1], binding was put at a Kd of 232 nM.

B2: AB1424/AB1612 F3′ TriNKET FcγRsi (bispecific antibody)
chain: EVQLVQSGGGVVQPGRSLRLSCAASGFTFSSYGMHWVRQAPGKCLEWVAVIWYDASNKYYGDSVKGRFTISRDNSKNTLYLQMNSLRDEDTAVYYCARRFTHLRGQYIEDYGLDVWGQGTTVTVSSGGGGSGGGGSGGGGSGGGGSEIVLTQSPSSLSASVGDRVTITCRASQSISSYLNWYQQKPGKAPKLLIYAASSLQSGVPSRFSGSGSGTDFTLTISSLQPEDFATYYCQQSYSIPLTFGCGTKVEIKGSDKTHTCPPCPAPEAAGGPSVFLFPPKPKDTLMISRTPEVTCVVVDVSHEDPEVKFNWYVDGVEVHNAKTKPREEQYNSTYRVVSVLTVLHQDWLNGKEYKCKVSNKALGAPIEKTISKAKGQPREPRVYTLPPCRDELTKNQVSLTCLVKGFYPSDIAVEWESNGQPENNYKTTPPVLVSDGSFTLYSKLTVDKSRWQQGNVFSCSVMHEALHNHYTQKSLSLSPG
heavy: EVQLVESGGGLVKPGGSLRLSCAASGFTFSSYSMNWVRQAPGKGLEWVSSISSSSSYIYYADSVKGRFTISRDNAKNSLYLQMNSLRAEDTAVYYCARGAPIGAAAGWFDPWGQGTLVTVSSASTKGPSVFPLAPSSKSTSGGTAALGCLVKDYFPEPVTVSWNSGALTSGVHTFPAVLQSSGLYSLSSVVTVPSSSLGTQTYICNVNHKPSNTKVDKKVEPKSCDKTHTCPPCPAPEAAGGPSVFLFPPKPKDTLMISRTPEVTCVVVDVSHEDPEVKFNWYVDGVEVHNAKTKPREEQYNSTYRVVSVLTVLHQDWLNGKEYKCKVSNKALGAPIEKTISKAKGQPREPQVCTLPPSRDELTENQVSLTCLVKGFYPSDIAVEWESNGQPENNYKTTPPVLDSDGSFFLYSWLTVDKSRWQQGNVFSCSVMHEALHNHYTQKSLSLSPG
light: DIQMTQSPSSVSASVGDRVTITCRASQGISSWLAWYQQKPGKAPKLLIYAASSLQSGVPSRFSGSGSGTDFTLTISSLQPEDFATYYCQQGVSFPRTFGGGTKVEIKRTVAAPSVFIFPPSDEQLKSGTASVVCLLNNFYPREAKVQWKVDNALQSGNSQESVTEQDSKDSTYSLSSTLTLSKADYEKHKVYACEVTHQGLSSPVTKSFNRGEC
notes: Positions are EU numbers, not positions on the entries; also called AB1424/AB1612 F3′ TriNKET-Fc-si; AB1424/AB1612 F3′ TriNKET-Fc silenced
As for B2, in test [2], the binding result was “no binding”.

B3: AB1080scFv displayed on yeast (scFv, V domains shown)
VH: EVQLVQSGGGVVQPGRSLRLSCAASGFTFSSYGMHWVRQAPGKCLEWVAVIWYDASNKYYGDSVKGRFTISRDNSKNTLYLQMNSLRDEDTAVYYCARRFTHLRGWYIEDYGLDVWGQGTTVTVSS
VL: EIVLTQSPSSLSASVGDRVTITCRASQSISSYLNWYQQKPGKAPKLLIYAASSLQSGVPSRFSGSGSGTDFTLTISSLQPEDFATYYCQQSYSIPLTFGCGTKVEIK
notes: scFv on yeast
Consider B3, for which the “Iana (drawn gate)” value in test [3] is 23.4 % (unit not printed).

B4: AB1084scFv displayed on yeast (scFv, V domains shown)
VH: EVQLVQSGGGVVQPGRSLRLSCAASGFTFSMYGMHWVRQAPGKCLEWVAVIWYDASNKYYGDSVKGRFTISRDNSKNTLYLQMNSLRDEDTAVYYCARRFTRLRGWYIEDYGLDVWGQGTTVTVSS
VL: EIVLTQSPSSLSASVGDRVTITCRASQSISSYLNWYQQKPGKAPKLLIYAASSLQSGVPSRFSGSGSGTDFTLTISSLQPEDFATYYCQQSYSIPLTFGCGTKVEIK
notes: scFv on yeast
Consider B4, for which the “Iana (drawn gate)” value in test [3] was 7.4 % (unit not printed).

B5: AB1081scFv displayed on yeast (scFv, V domains shown)
VH: EVQLVQSGGGVVQPGRSLRLSCAASGFAFSSYGMHWVRQAPGKCLEWVAVIWYDESNKYYGDSVKGRFTISRDNSRNTLYLQMNSLRDEDTAVYYCARRFTNLRGWIIEDYGLDVWGQGTTVTVSS
VL: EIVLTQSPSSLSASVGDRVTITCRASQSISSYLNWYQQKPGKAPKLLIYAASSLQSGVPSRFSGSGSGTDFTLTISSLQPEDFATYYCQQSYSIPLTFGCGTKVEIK
notes: scFv on yeast
Take B5: the “Iana (drawn gate)” value in test [3] was 27.2 % (unit not printed).

The Kd is the concentration at which binding is half-saturated. Read a low Kd as higher affinity.

For the origin of these results see US20240270861A1 (DRAGONFLY THERAPEUTICS, published 2024).
